Data from patent publication US20040253247A1 (Genentech, published 2004).
Where no end group is shown, it is not given here.

target: rabbit albumin (rabbit, UniProt P49065 25-608); assay: phage ELISA
Experimental: (§1) Phage ELISA—Phage clones (˜10¹¹ phage) were added to plates coated with rat, rabbit or human albumin. The microtiter plate was washed with wash buffer and bound phage were detected with HRP/Anti-M13 Conjugate. The amount of HRP bound was measured using ABTS/H₂O₂ substrate and monitoring the change at 405 nm.

Chain of rabbit albumin (P49065 25-608 limits assumed): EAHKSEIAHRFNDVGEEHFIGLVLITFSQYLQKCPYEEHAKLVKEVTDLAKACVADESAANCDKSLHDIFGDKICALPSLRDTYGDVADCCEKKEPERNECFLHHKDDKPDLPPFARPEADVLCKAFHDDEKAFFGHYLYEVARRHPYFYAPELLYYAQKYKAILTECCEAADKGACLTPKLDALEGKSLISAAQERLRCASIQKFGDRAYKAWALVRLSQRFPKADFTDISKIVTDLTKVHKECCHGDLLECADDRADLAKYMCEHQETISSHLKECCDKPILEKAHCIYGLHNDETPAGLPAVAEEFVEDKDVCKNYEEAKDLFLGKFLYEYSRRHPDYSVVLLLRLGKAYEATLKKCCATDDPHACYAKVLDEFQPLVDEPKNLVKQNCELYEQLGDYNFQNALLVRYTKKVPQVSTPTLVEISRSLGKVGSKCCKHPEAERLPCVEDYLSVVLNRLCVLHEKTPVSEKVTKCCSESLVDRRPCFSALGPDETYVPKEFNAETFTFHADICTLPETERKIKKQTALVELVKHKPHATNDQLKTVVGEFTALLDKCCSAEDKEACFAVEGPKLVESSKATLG

Binder | binding result
RDTVCYFPGICWMAS (phage clone, Library HBC) [HBC-H18] | no binding
KTEICYFPGICWMSG (phage clone, Library HBC) [HBC-H15] | no binding
HAEICYFPGICWTER (phage clone, Library HBC) [HBC-H17] | no binding
GGEICYFPGICRVLP (phage clone, Library HBC) [HBC-H4] | no binding
NDEICYFPGVCWKSG (phage clone, Library HBC) [HBC-H11] | no binding
EHDMCYFPGICWIAD (phage clone, Library HBC) [HBC-H6] | no binding
LVPERIVCYFESICYERSEL (phage clone, Library HB) [HB-H4] | no binding
RGPDVCYWPSICFERSMP (not fully specified (bridges); cysteine pairing not given here, phage clone, Library HB) [HB-H6] | no binding
VRDMCYFPGICWKSE (phage clone, Library HBC) [HBC-H19] | no binding
TTEMCYFPGICWKTE (phage clone, Library HBC) [HBC-H14] | no binding
QTELCYFPGICWNES (phage clone, Library HBC) [HBC-H13] | no binding
MEPSRSVCYAEGICFDRGEQ (phage clone, Library HB) [HB-H8] | no binding
ASEICYFPGICWMVE (phage clone, Library HBC) [HBC-H12] | no binding
GTEVCYFPGICWGGG (phage clone, Library HBC) [HBC-H3] | no binding
IVEMCYYPGICWISP [HB-H10] | no binding
QTRSFCADWPRHESCKPLRG (phage clone, Library HA) [HA-H76] | no binding
SGAICYVPGICWTHA [HB-H7] | no binding
SYAPCYFPGICWMGN (phage clone, Library HBC) [HBC-H8] | no binding
GVRTFCQDWPAHNSCKLLRG (phage clone, Library HA) [HA-H73] | no binding

Binder | binding result
REPASLVCYFEDICFVRAEA (phage clone, Library HB) [HB-H3] | no binding
GRSFCMDWPAHKSCTPLML (phage clone, Library HA) [HA-H83] | no binding
ELCYFPGICWM (phage clone, Library HC) [HC-H20] | no binding
EICYFPGICWM (phage clone, Library HC) [HC-H17] | no binding
EMCYFPGICWT (phage clone, Library HC) [HC-H9] | no binding
ALCYFPGICWM (phage clone, Library HC) [HC-H14] | no binding
ELCYFPGICWT [HB-H13] | no binding
KVCYFPGICWM (not fully specified (bridges); cysteine pairing not given here, phage clone, Library HC) [HC-H5] | no binding
DLCYFPGICWM (phage clone, Library HC) [HC-H3] | no binding
DVCYFPGICWM (phage clone, Library HC) [HC-H8] | no binding
EVCYFPGICWF (phage clone, Library HC) [HC-H11] | no binding
KTCYFPGICWM (phage clone, Library HC) [HC-H10] | no binding
EMCYFPGICWS (phage clone, Library HC) [HC-H7] | no binding
EVCYFPGICWE (phage clone, Library HC) [HC-H16] | no binding
EICYFPGICWI [HB-H12] | no binding
ELCYFPGICWP (phage clone, Library HC) [HC-H15] | no binding
EVCYFPGICWM (phage clone, Library HC) [HC-H19] | no binding
VQEVCYFPGICWMQE (phage clone, Library HBC) [HBC-H10] | no binding
SREVCYYPGICWNGA (phage clone, Library HBC) [HBC-H2] | no binding

target: rat albumin (rat, UniProt P02770 25-608); assay: phage ELISA
Sequence (P02770 25-608 limits assumed): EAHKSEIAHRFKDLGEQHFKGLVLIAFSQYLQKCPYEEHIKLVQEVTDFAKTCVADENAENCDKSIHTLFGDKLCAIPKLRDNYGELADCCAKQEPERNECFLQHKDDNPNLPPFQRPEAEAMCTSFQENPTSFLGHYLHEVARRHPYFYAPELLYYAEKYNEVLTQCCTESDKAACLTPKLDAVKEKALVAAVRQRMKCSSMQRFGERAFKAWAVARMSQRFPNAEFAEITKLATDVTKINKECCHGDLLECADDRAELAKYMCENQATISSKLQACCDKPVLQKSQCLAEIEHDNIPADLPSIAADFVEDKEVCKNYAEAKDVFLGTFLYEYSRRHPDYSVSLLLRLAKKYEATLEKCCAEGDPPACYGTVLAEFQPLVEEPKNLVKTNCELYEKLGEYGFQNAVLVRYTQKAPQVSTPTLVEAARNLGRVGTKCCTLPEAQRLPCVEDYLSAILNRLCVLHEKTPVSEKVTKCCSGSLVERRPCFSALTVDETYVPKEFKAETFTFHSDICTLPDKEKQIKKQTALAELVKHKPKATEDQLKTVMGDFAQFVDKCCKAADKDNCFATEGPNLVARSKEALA
Experimental: as §1

Binder | binding result
RDTVCYFPGICWMAS (phage clone, Library HBC) [HBC-H18] | no binding
KTEICYFPGICWMSG (phage clone, Library HBC) [HBC-H15] | no binding
HAEICYFPGICWTER (phage clone, Library HBC) [HBC-H17] | no binding
GGEICYFPGICRVLP (phage clone, Library HBC) [HBC-H4] | no binding
NDEICYFPGVCWKSG (phage clone, Library HBC) [HBC-H11] | no binding
EHDMCYFPGICWIAD (phage clone, Library HBC) [HBC-H6] | no binding
LVPERIVCYFESICYERSEL (phage clone, Library HB) [HB-H4] | no binding
RGPDVCYWPSICFERSMP (not fully specified (bridges); cysteine pairing not given here, phage clone, Library HB) [HB-H6] | no binding
VRDMCYFPGICWKSE (phage clone, Library HBC) [HBC-H19] | no binding
TTEMCYFPGICWKTE (phage clone, Library HBC) [HBC-H14] | no binding
QTELCYFPGICWNES (phage clone, Library HBC) [HBC-H13] | no binding
MEPSRSVCYAEGICFDRGEQ (phage clone, Library HB) [HB-H8] | no binding
ASEICYFPGICWMVE (phage clone, Library HBC) [HBC-H12] | no binding
GTEVCYFPGICWGGG (phage clone, Library HBC) [HBC-H3] | no binding
IVEMCYYPGICWISP [HB-H10] | no binding
QTRSFCADWPRHESCKPLRG (phage clone, Library HA) [HA-H76] | no binding
SGAICYVPGICWTHA [HB-H7] | no binding
SYAPCYFPGICWMGN (phage clone, Library HBC) [HBC-H8] | no binding
GVRTFCQDWPAHNSCKLLRG (phage clone, Library HA) [HA-H73] | no binding

Binder | binding result
REPASLVCYFEDICFVRAEA (phage clone, Library HB) [HB-H3] | no binding
GRSFCMDWPAHKSCTPLML (phage clone, Library HA) [HA-H83] | no binding
ELCYFPGICWM (phage clone, Library HC) [HC-H20] | no binding
EICYFPGICWM (phage clone, Library HC) [HC-H17] | no binding
EMCYFPGICWT (phage clone, Library HC) [HC-H9] | no binding
ALCYFPGICWM (phage clone, Library HC) [HC-H14] | no binding
ELCYFPGICWT [HB-H13] | no binding
KVCYFPGICWM (not fully specified (bridges); cysteine pairing not given here, phage clone, Library HC) [HC-H5] | no binding
DLCYFPGICWM (phage clone, Library HC) [HC-H3] | no binding
DVCYFPGICWM (phage clone, Library HC) [HC-H8] | no binding
EVCYFPGICWF (phage clone, Library HC) [HC-H11] | no binding
KTCYFPGICWM (phage clone, Library HC) [HC-H10] | no binding
EMCYFPGICWS (phage clone, Library HC) [HC-H7] | no binding
EVCYFPGICWE (phage clone, Library HC) [HC-H16] | no binding
EICYFPGICWI [HB-H12] | no binding
ELCYFPGICWP (phage clone, Library HC) [HC-H15] | no binding
EVCYFPGICWM (phage clone, Library HC) [HC-H19] | no binding
VQEVCYFPGICWMQE (phage clone, Library HBC) [HBC-H10] | no binding
SREVCYYPGICWNGA (phage clone, Library HBC) [HBC-H2] | no binding
